Square brackets hold non-standard residues; d marks the D form. Ends that are not written are not given here. Met(O) = CS(=O)CC[C@H](N)C(=O)O; pS = N[C@@H](COP(=O)(O)O)C(=O)O
Key:
[1] = biological target: Recombinant bovine HSC70 (Stressgen) (bovine) (UniProt P19120); assay: SPR Biacore 3000, HSC70 immobilised, peptide analyte at 25 uM, 1:1 Langmuir fit
[2] = biological target: Recombinant bovine HSC70 (Stressgen) (bovine) (UniProt P19120); assay: SPR Biacore 3000, HSC70 immobilised, peptide analyte at 1.56 uM, 1:1 Langmuir fit
[3] = biological target: Recombinant bovine HSC70 (Stressgen) (bovine) (UniProt P19120); assay: SPR Biacore 3000, HSC70 immobilised, peptide analyte at 12.5 uM, 1:1 Langmuir fit
[4] = biological target: Recombinant bovine HSC70 (Stressgen) (bovine) (UniProt P19120); assay: SPR Biacore 3000, HSC70 immobilised, peptide analyte at 3.12 uM, 1:1 Langmuir fit
[5] = biological target: Recombinant bovine HSC70 (Stressgen) (bovine) (UniProt P19120); assay: SPR Biacore 3000, HSC70 immobilised, peptide analyte at 6.25 uM, 1:1 Langmuir fit
[6] = biological target: Recombinant bovine HSC70 (Stressgen) (bovine) (UniProt P19120); assay: SPR Biacore 3000, HSC70 immobilised on CM5, peptide as analyte 1.56-25 uM, 1:1 Langmuir global fit, 25 C

Recombinant bovine HSC70 (Stressgen) (bovine), sequence (P19120 whole entry): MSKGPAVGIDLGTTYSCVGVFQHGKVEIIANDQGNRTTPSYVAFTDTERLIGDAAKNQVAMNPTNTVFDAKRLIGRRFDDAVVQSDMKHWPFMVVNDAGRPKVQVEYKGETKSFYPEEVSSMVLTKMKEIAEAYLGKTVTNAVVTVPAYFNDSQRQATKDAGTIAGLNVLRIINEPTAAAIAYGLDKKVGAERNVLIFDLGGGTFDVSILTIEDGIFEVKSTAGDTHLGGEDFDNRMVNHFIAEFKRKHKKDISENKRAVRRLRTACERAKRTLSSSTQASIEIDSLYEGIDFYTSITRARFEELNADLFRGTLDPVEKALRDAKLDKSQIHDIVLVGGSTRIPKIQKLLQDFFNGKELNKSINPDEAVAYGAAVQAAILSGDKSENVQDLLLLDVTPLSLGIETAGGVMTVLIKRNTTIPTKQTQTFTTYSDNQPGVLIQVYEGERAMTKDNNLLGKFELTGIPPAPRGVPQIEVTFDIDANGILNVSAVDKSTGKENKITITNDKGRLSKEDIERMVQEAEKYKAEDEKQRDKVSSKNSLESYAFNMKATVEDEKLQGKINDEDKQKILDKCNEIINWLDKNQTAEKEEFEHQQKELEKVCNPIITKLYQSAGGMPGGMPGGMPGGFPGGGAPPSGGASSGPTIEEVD

Ka [1] [M⁻¹] | Kd [1] [µM] | Req [1] [RU] | kobs [1] [s⁻¹] | koff [1] [s⁻¹] | Ka [2] [M⁻¹] | Kd [2] [µM] | Req [2] [RU] | kobs [2] [s⁻¹] | koff [2] [s⁻¹] | Ka [3] [M⁻¹] | Kd [3] [µM] | Req [3] [RU] | kobs [3] [s⁻¹] | koff [3] [s⁻¹] | Ka [4] [M⁻¹] | Kd [4] [µM] | Req [4] [RU] | kobs [4] [s⁻¹] | koff [4] [s⁻¹] | Binder | other results
524000 | 1.91 | 36.3 | 0.031 | 0.0022 | 524000 | 1.91 | 17.6 | 0.004 | 0.0022 | 524000 | 1.91 | 33.9 | 0.0166 | 0.0022 | 524000 | 1.91 | 24.2 | 0.0058 | 0.0022 | RIH[Met(O)]VYSKR[pS]GKPRGYAFIEY | Ka [5]: 524000 M⁻¹; Kd [5]: 1.91 µM; Req [5]: 29.9 RU; kobs [5]: 0.0094 s⁻¹; koff [5]: 0.0022 s⁻¹; kon [6]: 1150 M⁻¹ s⁻¹
144000 | 6.94 | 65.2 | 0.0144 | 0.00312 | 144000 | 6.94 | 15.3 | 0.00382 | 0.00312 | 144000 | 6.94 | 53.6 | 0.00874 | 0.00312 | 144000 | 6.94 | 25.8 | 0.00452 | 0.00312 | RIHMVYSKR[pS]GKPRGYAFIEY [P140 peptide (peptide consisting of SEQ ID NO: 1 in which serine at position 10 is phosphorylated)] | Ka [5]: 144000 M⁻¹; Kd [5]: 6.94 µM; Req [5]: 39.5 RU; kobs [5]: 0.00593 s⁻¹; koff [5]: 0.00312 s⁻¹; kon [6]: 450 M⁻¹ s⁻¹

From patent publication US20160166636A1
